# T1: GST-dSNAP-29 (Drosophila, UniProt Q9W1I8 1-284)
# T1 construct: Drosophila SNAP-29 (CG11173, ubisnap/usnp), full-length cDNA amplified from EST clone LD17127 and subcloned into pGEX-KG; predicted mass 32 kDa; Vector pGEX-KG; also called GST-SNAP-29; Drosophila SNAP-29; source: coupled to glutathione beads
# T1 sequence (looked up): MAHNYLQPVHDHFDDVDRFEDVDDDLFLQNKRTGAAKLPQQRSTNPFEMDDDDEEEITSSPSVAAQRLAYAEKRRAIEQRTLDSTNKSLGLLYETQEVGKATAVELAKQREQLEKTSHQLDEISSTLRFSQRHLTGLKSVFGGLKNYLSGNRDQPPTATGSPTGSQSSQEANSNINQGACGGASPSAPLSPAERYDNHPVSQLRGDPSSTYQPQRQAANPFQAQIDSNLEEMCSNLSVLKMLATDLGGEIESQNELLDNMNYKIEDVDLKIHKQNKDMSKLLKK
# Target: T1, GST-dSNAP-29
# Experiment: pull-down; 0.5 mg GST fusion or GST on 120 uL glutathione beads, incubated with pre-cleared S2 cell lysate (PLC or NP40 lysis buffer, 0.1% gelatin, 0.1% BSA); washes 50 mM HEPES pH 7.5, 150 mM NaCl, 2 mM EDTA; western blot
# Conditions: for percent recovered from the lysate: one partner purified
Molecule,percent pulled down from the lysate,percent recovered from the lysate
"DAP160, endogenous (natural protein)",15%,–
"dEHD1, endogenous (natural protein)",12%,–

# Now from value to molecule:
percent pulled down from the lysate,percent recovered from the lysate,Molecule
–,4%,"dsyntaxin 16, endogenous (natural protein, UniProt Q9VR90 1-352, looked up, Drosophila syntaxin 16, endogenous in S2 cells (pull-down) and in embryos (co-IP); also called dSyx16; dSyx 16; source: endogenous, S2 cell lysate; endogenous, Oregon R embryo lysate) MTSRNLTEVFVIMRNNASKNRNHYDDRRGSDAERLLKHSVREAEEGLELQDDYGTPPAWLDKFEEAQYTMSKIKPKLDELGSLHARHLLRPAFDDQRDDECDIEVLSQIVSKLITSTHRHIQCVRSSIGVGSKMEQCLTVNAVHCALLQLQELTVKFRASQNAYLLQLNSREERSQKYFDDGGGAGAGDVFTNVELGEQSAENFVDSFDNFLQPPAEGKSGNGYLFEDDEQAIDDHFQRPPASRMTQQQLLLFEEENTRVAQHREQEVTKIVKSIYDLNDIFKDLGHMVQEQGTVLDRIDYNVEQTQTRVSEGLRQLHKAEMYQRKNRKMCVILVLAAVTFFMLLLLILTKL"
–,6%,"dsyntaxin1, endogenous (natural protein, UniProt Q24547 1-291, looked up, Drosophila syntaxin 1, endogenous in S2 cells (pull-down) and in embryos (co-IP); also called dSyx1; source: endogenous, S2 cell lysate; endogenous, Oregon R embryo lysate) MTKDRLAALHAAQSDDEEETEVAVNVDGHDSYMDDFFAQVEEIRGMIDKVQDNVEEVKKKHSAILSAPQTDEKTKQELEDLMADIKKNANRVRGKLKGIEQNIEQEEQQNKSSADLRIRKTQHSTLSRKFVEVMTEYNRTQTDYRERCKGRIQRQLEITGRPTNDDELEKMLEEGNSSVFTQGIIMETQQAKQTLADIEARHQDIMKLETSIKELHDMFMDMAMLVESQGEMIDRIEYHVEHAMDYVQTATQDTKKALKYQSKARRKKIMILICLTVLGILAASYVSSYFM"
–,~7%,"dSNAP (Drosophila soluble NSF attachment protein), endogenous (natural protein, Drosophila (endogenous in S2 cells), UniProt Q23983 1-292, looked up, Drosophila SNAP (soluble NSF attachment protein), endogenous in Schneider S2 cells; also called Drosophila SNAP; source: endogenous, S2 cell lysate) MGDNEQKALQLMAEAEKKLTQQKGFLGSLFGGSNKVEDAIECYQRAGNMFKMSKNWTKAGECFCEAATLHARAGSRHDAGTCYVDASNCYKKVDVESAVNCLMKSIDIYTDMGRFTMAAKHHQSIAEMYESDPNNLAKSIQHYEQAADYFKGEESVSSANKCMLKVAQYAAQLEDYEKAISIYEQVAASSLESSLLKYSAKEYFFRAALCHLSVDLLNAQHAIEKYAQQYPAFQDSREFKLIKVLCENLEEQNIEGFTEAVKDYDSISRLDQWYTTILLRIKKAADEDPDLR"
